Measurements reported in paper PMC4989220, “The role of Rab6a and phosphorylation of non-muscle myosin IIA tailpiece in alcohol-induced Golgi disorganization” (Scientific Reports, 2016).
Substitutions are numbered along the chain they refer to.

B1: Rab6a GTPase (natural protein, UniProt P20340 1-208, looked up)
chain: MSTGGDFGNPLRKFKLVFLGEQSVGKTSLITRFMYDSFDNTYQATIGIDFLSKTMYLEDRTVRLQLWDTAGQERFRSLIPSYIRDSTVAVVVYDITNVNSFQQTTKWIDDVRTERGSDVIIMLVGNKTDLADKRQVSIEEGERKAKELNVMFIETSAKAGYNVKQLFRRVAAALPGMESTQDRSREDMIDIKLEKPQEQPVSEGGCSC
notes: Rab6a GTPase, endogenous in VA-13 cells (HepG2 cells expressing ADH); source: endogenous, VA-13 cells (lysate, Golgi fraction, fixed cells)
B2: Rab6a GTPase (rat hepatocytes) (natural protein, rat (endogenous in primary hepatocytes), UniProt Q9WVB1 1-208, looked up)
chain: B1 chain with T3A, S202N
notes: Rab6a, endogenous in hepatocytes of male Wistar rats; source: endogenous, primary rat hepatocytes (fixed cells, Golgi fraction)

Biological target: the molecule itself
Experiment: Western blot of Golgi membrane fraction (dimer band); Rab6a Western blot of the Golgi fraction (sucrose gradient) from control VA-13 cells and hepatocytes from control rats

| Protein | stoichiometry N |
| --- | --- |
| B1 | 2 |
| B2 | 2 |
